B1: MED15 (natural protein, mouse (Mus musculus; endogenous in CH12), UniProt Q924H2 1-789, looked up)
chain: MDVSGQETDWRSAAFRQKLVSQIEDAMRKAGVAHSKSSKDMESHVFLKAKTRDEYLSLVARLIIHFRDIHNKKSQASVSDPMNALQSLTGGPTPGAAGIGMPPRGPGQSLGGMGGLGAMGQPLPLSGQPPPGTSGMAPHGMAVVSTATPQTQLQLQQVALQQQQQQQQQQQFQQQQAALQQQQQQQQQQQQQQQFQAQQNAMQQQFQAVVQQQQLQQQQQQQHLIKLHHQSQQQQIQQQQLQRMAQLQLQQQQQQQQQQALQAQPPMQQPSMQQPQPPPSQALPQQLSQLHHPQHHQPPPQAQQSPIAQNQPPQIPPQSQSQPLVSQAQALPGPMLYAAQQQLKFVRAPMVVQQPQVQPQVQQVQPQVQPQAAVQAAQSAQMVAPGVQMIAEALAQGGMHVRARFPPTSTMSAGPSSSISLGGQPTTQVSQSSLTMLSSPSPGQQVQTPQSMPPPPQPSPQPGSQPNSNVSSGPAPSPSSFLPSPSPQPSQSPVTARTPQNFSVPSPGPLNTPVNPSSVMSPAGSSQAEEQQYLDKLKQLSKYIEPLRRMINKIDKNEDRKKDLSKMKSLLDILTDPSKRCPLKTLQKCEIALEKLKNDMAVPTPPPPPVLPTKQQDLCQPLLDAVLANIRSPVFNHSLYRTFVPAMMAIHGPPIVSPVVCSRKRRFEEDERQSIPNVLQGEVARLDPKFLVNLDPSHCSNNGTVHLICKLDDKDLPSVPPLELSVPADYPAQSPMWIDRQWQYDANPFLQSVHRCMTSRLLQLPDKHSVTALLNTWAQSIHQACLSAA
notes: MED15, Mus musculus, endogenous lower Tail subunit of Mediator; only the C-terminal portion (from residue 620) is seen in the map; source: endogenous, CH12 mouse B lymphoma nuclear extract; immunopurified as part of Mediator (FLAG M2 agarose, FLAG peptide elution)
B2: MED25 (natural protein, mouse (Mus musculus; endogenous in CH12), UniProt Q8VCB2 1-745, looked up)
chain: MVPGSEGPARAGGLVADVVFVIEGTANLGPYFEELRKHYLLPAIEYFNGGPPAETDFGGDYGGTQYSLVVFNTVDCAPESYVQCHAPTSSAYEFVTWLDGIKFMGGGGESCSLIAEGLSTALQLFDDFKKMREQIGQTHRVCLLICNSPPYLLPAVESTTYSGCTTESLVQKIGERGIHFSIVSPRKLPALRLLFEKAAPPALLEPLQQPADVSQDPRHMVLVRGLVLPVGGSSTSGSLQTKQAVPLPPAPASAATLSAAPPQALPPVPPQYQVPGNLSAAQVAAQNAVEAAKSQKAGLGPRFSPINPLQQAAPGVGPPFSQAPAPPLAPVPPGAPKPPPASQPSLVSTVAPGPVLAAPAQPGAPSLAGTVTPGGVNGPSAAQLGGPALGGQQSVSNKLLAWSGVLEWQEKPKPASVDANTKLTRSLPCQVYVNHGENLKTEQWPQKLIMQLIPQQLLTTLGPLFRNSRMVQFHFTNKDLESLKGLYRIMGNGFAGCVHFPHTAPCEVRVLMLLYSSKKKIFMGLIPYDQSGFVNGIRQVITNHKQVQQQKLEQQRGMGAQQAPPVLGPILEEQARPPQNLLQLRAPQPQPQGAVGASAATGQPQPQGATQAPTGAPQGPPGAAPGPPPSGPILRPQNPGANPQLRSLLLNPAPPQTGVPPPQASLHHLQPPGAPTLLPPHQSMGQPQLGPQLLHPPPAQSWPTQLPQRAPLPGQMLLSGGPRGPVPQPGLQPSVMEDDILMDLI
notes: MED25, Mus musculus, endogenous lower Tail subunit of Mediator; only the N-terminal von Willebrand domain (aa 15-216) is seen in the map; The 3×FLAG tag stands on MED25 only in the MED25-FLAG cell line; in the MED19-FLAG line MED25 is untagged; Images from the datasets were combined for the final map; also called MED25-FLAG; source: endogenous, CH12 mouse B lymphoma nuclear extract; …

Legend:
MED24 = biological target: T1, MED24 (mouse (Mus musculus; endogenous in CH12), UniProt Q99K74 1-987); test: cryo-EM structure; endogenous mouse Mediator immunopurified from CH12 nuclear extract through 3×FLAG-MED19 or 3×FLAG-MED25; eluted in 50 mM HEPES pH 7.9, 100 mM KCl, 5% glycerol, 1 mM EDTA, 0.005% NP-40; map at 4.0 Å overall, focused refinement of the MED1 and knob/hook ends (6-10 Å); conditions: both partners purified
T1 construct: MED24, Mus musculus, endogenous lower Tail subunit of Mediator; source: endogenous, CH12 mouse B lymphoma nuclear extract; immunopurified as part of Mediator (FLAG M2 agarose, FLAG peptide elution)
T1 sequence (looked up): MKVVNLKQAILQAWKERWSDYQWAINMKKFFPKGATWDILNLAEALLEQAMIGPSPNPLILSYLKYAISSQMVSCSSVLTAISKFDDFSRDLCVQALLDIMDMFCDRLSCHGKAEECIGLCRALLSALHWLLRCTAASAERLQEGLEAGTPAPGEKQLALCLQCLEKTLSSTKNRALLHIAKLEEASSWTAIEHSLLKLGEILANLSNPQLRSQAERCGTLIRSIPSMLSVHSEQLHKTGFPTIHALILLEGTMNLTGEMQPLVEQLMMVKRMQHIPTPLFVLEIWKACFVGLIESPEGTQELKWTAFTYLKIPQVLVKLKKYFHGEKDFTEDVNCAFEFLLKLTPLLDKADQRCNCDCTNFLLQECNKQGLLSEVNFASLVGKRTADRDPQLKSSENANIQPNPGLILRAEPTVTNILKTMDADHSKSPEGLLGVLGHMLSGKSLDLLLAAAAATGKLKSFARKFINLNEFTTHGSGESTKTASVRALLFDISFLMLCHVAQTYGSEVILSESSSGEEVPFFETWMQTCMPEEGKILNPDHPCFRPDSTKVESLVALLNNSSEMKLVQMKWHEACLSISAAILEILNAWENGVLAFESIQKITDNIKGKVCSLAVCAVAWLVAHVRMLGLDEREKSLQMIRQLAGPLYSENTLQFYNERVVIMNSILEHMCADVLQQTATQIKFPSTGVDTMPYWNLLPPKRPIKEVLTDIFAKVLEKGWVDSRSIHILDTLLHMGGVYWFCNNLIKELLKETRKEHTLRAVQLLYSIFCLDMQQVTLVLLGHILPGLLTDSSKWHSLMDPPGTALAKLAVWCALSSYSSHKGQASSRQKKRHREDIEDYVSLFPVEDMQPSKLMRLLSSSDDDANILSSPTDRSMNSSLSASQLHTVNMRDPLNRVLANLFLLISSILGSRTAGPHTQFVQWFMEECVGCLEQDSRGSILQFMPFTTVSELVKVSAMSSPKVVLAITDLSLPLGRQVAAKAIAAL

MED23 = biological target: T2, MED23 (mouse (Mus musculus; endogenous in CH12), UniProt Q80YQ2 1-1367); test: as above; conditions: both partners purified
T2 construct: MED23, Mus musculus, endogenous lower Tail subunit of Mediator; Model building started from the X-ray structure of human MED23 (PDB 6H02); source: endogenous, CH12 mouse B lymphoma nuclear extract; immunopurified as part of Mediator (FLAG M2 agarose, FLAG peptide elution)
T2 sequence (looked up): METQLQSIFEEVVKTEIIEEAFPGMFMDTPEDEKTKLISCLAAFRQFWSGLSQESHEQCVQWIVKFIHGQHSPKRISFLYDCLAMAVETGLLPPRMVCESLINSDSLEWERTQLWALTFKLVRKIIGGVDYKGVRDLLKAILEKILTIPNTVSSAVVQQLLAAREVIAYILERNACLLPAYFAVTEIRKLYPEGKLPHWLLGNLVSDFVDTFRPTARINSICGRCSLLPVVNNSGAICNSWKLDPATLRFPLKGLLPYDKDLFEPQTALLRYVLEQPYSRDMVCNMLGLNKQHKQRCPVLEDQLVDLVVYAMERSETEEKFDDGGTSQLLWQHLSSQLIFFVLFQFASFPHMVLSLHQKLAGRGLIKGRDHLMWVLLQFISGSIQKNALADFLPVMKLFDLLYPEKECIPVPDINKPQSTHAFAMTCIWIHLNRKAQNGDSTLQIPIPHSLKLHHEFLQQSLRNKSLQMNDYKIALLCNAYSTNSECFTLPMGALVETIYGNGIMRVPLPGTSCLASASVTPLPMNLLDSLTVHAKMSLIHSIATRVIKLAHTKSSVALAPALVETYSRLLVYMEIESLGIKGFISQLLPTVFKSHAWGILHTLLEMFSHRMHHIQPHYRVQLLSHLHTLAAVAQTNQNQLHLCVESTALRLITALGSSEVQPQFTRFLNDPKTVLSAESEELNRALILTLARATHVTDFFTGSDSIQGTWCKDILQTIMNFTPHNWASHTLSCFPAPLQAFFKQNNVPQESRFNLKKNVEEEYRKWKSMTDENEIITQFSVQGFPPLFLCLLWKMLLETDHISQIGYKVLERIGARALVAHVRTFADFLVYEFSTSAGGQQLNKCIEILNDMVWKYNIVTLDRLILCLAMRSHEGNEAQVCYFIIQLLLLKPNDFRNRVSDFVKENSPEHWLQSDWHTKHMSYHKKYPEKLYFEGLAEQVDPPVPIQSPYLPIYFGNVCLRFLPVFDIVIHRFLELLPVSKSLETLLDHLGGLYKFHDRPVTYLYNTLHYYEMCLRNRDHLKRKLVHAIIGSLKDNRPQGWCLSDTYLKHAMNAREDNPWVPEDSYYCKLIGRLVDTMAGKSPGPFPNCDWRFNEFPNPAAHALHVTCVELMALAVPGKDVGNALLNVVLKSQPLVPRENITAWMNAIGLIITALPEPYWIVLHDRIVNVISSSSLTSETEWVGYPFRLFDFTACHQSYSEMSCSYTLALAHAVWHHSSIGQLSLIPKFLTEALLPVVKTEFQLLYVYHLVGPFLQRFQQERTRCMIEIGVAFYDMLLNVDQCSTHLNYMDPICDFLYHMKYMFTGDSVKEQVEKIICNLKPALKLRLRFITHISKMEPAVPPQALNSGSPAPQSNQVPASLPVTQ

Row | Binder | binding result (MED24) | binding result (MED23)
1 | B1 | binds | binds
2 | B2 | binds | binds

From article PMC7921410, “Structure of mammalian Mediator complex reveals Tail module architecture and interaction with a conserved core” (Nature Communications, 2021)
